Measurements as given in article PMC8022922.

Target: AfMAT1-1-1_(78–235) (Aspergillus fumigatus)
Experiment: SEC

## AfMAT1-1-1_(78–235) (domain or fragment)
  stoichiometry N: 2
